In patent publication US8765908B2, “Compositions for improving bone mass” (The UAB Research Foundation, priority 2010, dated 2014):
Changes are numbered by the printed parent chain. Entries after “also recorded” stand apart in the source; their conditions may differ.

Columns and labels:
[1] = target: T1, Myc-mRANK (RANK fragment with IVVY to IVAF inactivating mutation) (Mus musculus, UniProt O35305, V537A/Y538F); assay: Co-immunoprecipitation with Myc-mRANK in 293T cells; assay type: binding; conditions: cotransfection with Myc-mRANK; IP anti-Myc, WB anti-HA
T1 construct: expressed in transfected cells; host or cells: 293T cells
T1 sequence (O35305 498-556 V537A/Y538F): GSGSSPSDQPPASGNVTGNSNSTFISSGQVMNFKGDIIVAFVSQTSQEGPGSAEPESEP
Description: (§1) 293T cells were cultured in DMEM containing 10% heat-inactivated fetal bovine serum (HI-FBS) and penicillin/streptomycin (culturing medium). Cells grown near confluence were lifted and replated at density of 5×10^6 cells/dish in 100-mm tissue culture dishes the day before transfection. Total 8 μg plasmid was transfected into 293T cells using Lipofectamine™ in combination of Plus® Reagent (Invitrogen). Briefly, 8 μg plasmid was mixed with 20 μl Plus®Reagent before addition of 350 μl DMEM. The mixture was incubated at RT for 15 min and then added with 380 μl freshly prepared Lipofectamine™ Reagent (Lipofectamine™ Reagent+350 μl DMEM). The complete transfection solution was further incubated at RT for 15 min before being added to one dish of 293T cells which was washed with DMEM twice immediately before the addition of the solution. The cells were incubated at 37° C. for 3 hrs before addition of 6.5 ml culturing medium and the incubation continued overnight. Next day, the medium containing the DNA/transfection reagents was replaced with fresh culturing medium. […]
Next, it was determined whether the IVVY (SEQ ID NO:4) motif in the RANK region is specifically responsible for interaction with RYBP. […] Cell lysates were coimmunoprecipitated with anti-Myc antibody and then the precipitates were analyzed by Western analysis with anti-HA antibody.

[2] = target: T2, RANK fragment 498-556 (Myc-RANK) (Mus musculus, UniProt O35305); assay: Co-immunoprecipitation with Myc-RANK in 293T cells; assay type: binding; conditions: cotransfection with Myc-RANK in 293T cells; IP then Western blot
T2 construct: expressed in transfected cells; host or cells: 293T cells
T2 sequence (O35305 498-556): T1 sequence (O35305 498-556 V537A/Y538F) with A40V, F41Y
Description: as §1, with “overnight.” for “overnight. Next day, the medium containing the DNA/transfection reagents was replaced with fresh culturing medium.”
As such, the potential of RYBP as a signaling molecule interacting with the IVVY (SEQ ID NO:4) motif was examined to regulate osteoclastogenesis. […] It was then determined whether the interaction between the RANK fragment and RYBP seen in yeast also occurs in mammalian cells. the cDNA region encoding the bait was cloned into pCMV-Myc vector (BD Biosciences Clontech) to generate Myc-RANK (FIG. 1C). […]

Substance: HA-RYBP: full-length RYBP cDNA subcloned into pCMV-HA vector
- interaction with IVVY-mutated RANK (co-IP band) [1]: failed to do so
- interaction with RANK (co-IP band) [2]: gave rise to a positive band; also recorded: yielded a positive band
